Experimental data published in patent publication US20250340646A1 (ELPIS BIOPHARMACEUTICALS, published 2025).
Where two headings read alike, the source gives them in different places.

Columns and labels:
[1] = target: PD-L1 on PD-L1 aAPC/CHOK1 cells (Promega J1250); assay: cell-based or functional assay
[2] = target: PD-L1 on PD-L1 aAPC/CHOK1 cells (Promega J1250); assay: cell-based or functional assay; remark: listed apart in the source
[3] = target: PD-L1 on PD-L1 aAPC/CHOK1 cells (Promega J1250); assay: cell-based or functional assay; remark: listed apart in the source
[4] = target: T1, PD-L1 biotinylated (PD-1/PD-L1 TR-FRET assay kit, BPS 72038) (Homo sapiens (Human), UniProt Q9NZQ7 19-238, biotinylated; site not stated); assay: HTRF competition, competitor PD-1-Eu
T1 construct: Kit reagent
Method: (§1) Briefly, 1× Immuno buffer 1 was made. […] For each well in 384-well plate, serial diluted scFvs and regents were added according to manufacturer's recommended volume. Samples were incubated at room temperature for 1.5 hours then the fluorescent intensity was read with Biotek Neo2 plate reader using manufacture's instrument setting for the assay.

[5] = target: T1, PD-L1 biotinylated (PD-1/PD-L1 TR-FRET …); assay: HTRF competition, competitor PD-1-Eu; remark: listed apart in the source
Method: as §1

[6] = target: T1, PD-L1 biotinylated (PD-1/PD-L1 TR-FRET …); assay: HTRF competition, competitor PD-1-Eu; remark: listed apart in the source
Method: as §1

[7] = target: T2, human PD-L1-HIS tagged recombinant protein (human, UniProt Q9NZQ7 19-238); assay: ELISA, coated PD-L1-HIS, anti-hFc HRP
T2 construct: also called hPD-L1-HIS; PD-L1 HIS tagged protein
Method: The plate was incubated overnight at 4° C. followed by blocking with 80 μL of superblock per well for 1 hour. […] In between each step, the plate was washed 3 times with 1×PBST in a plate washer. The plate was then developed with 20 μL of TMB substrate for 5 min and stopped by adding 20 μL of 2N sulfuric acid. The plate was read at OD450 nm Biotek plate reader and then plotted in Prism 8.1 software.

[8] = target: T2, human PD-L1-HIS tagged recombinant …; assay: SPR, IgG on Protein A, PD-L1-HIS analyte
Method: The assay was run with Biacore T200 control software version 2.0. For each cycle, 1 μg/mL of anti-hPD-L1-IgG was captured for 60 seconds at flow rate of 10 μl/min on flow cell 2 in 1×HBSP buffer on Protein A sensor chip. […] The flow cells were then regenerated with Glycine pH 2 for 60 seconds at flow rate of 30 μl/min. […] The specific binding response unit was derived from subtraction of binding to reference flow cell 1 from antibody captured flow cell 2.

[9] = target: T2, human PD-L1-HIS tagged recombinant …; assay: SPR, Protein A capture, PD-L1-HIS analyte
[10] = target: T3, full-length human PD-L1 on K562 cells (human, UniProt Q9NZQ7 19-290); assay: FACS, PD-L1/K562 cells, anti-hFc Alexa Fluor 647
T3 construct: also called PD-L1/K562; cell surface human PD-L1
Method: Cells were spun down at 1200 rpm for 5 minutes at 4° C. to remove primary antibodies. Cells were then washed once with 200 μL of full medium per well. […] Samples were spun down at 1200 rpm for 5 minutes at 4° C. and washed twice with 200 μL of 1×PBS per well. Reconstituted samples in 200 μL of 1×PBS and read on Attune NxT cytometer.

biotinylated PD-L1 [11] = target: T4, biotinylated PD-L1 (Homo sapiens (Human), UniProt Q9NZQ7 19-238, biotinylated; site not stated); assay: ELISA, anti-human Fc capture, biotinylated PD-L1
Method: A 384 well plate was immobilized with anti-human Fc at final concentration of 2 μg/mL in 1×PBS in total volume of 25 μL per well. The plate was incubated overnight at 4° C. followed by blocking with 80 μL of superblock per well for 1 hour. […] In between each step, the plate was washed 3 times with 1×PBST in a plate washer. […] The plate was read at OD450 nm Biotek plate reader and the binding correlation was plotted with Prism 8.1 software.

biotinylated PD-L1 [12] = target: T4, biotinylated PD-L1; assay: ELISA as described in Example 7 (value equals Table 17)
[13] = target: T5, recombinant His-tagged human IL-2Rα (human, UniProt P01589 22-213, limits assumed); assay: ELISA, coated His-tagged human IL-2Rα, OD 450 nm
T5 construct: also called IL-2Rα-HIS; CD25
T5 sequence (looked up): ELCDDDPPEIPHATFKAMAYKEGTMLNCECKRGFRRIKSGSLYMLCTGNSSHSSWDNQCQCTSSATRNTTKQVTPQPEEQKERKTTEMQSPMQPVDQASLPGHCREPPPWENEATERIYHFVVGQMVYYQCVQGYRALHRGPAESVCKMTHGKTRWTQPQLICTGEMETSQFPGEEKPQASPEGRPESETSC
Method: (§2) For monovalent IL-2 Fc-fusion proteins, recombinant His-tagged human IL-2Rα and IL-2Rβ were added in 25 μL of 1×PBS to wells of 384-well plate and incubated overnight at 4° C. to coat the plates. Plates were washed three times with 0.05% Tween20/1×PBS. Plates were blocked with 100 μL of SuperBlock for 1 hr at RT and then washed 3 times with 0.05% Tween20/1×PBS. IL-2 mutants were diluted in 0.05% Tween 20/1×PBS from 1000 nM to 0 nM and added to plates for 2 hrs at room temperature. Plates were then washed 6 times with 0.05% Tween20/1×PBS. Anti-HisTag-HRP was diluted 1:5000 in 0.05% Tween20/1×PBS and added to plates for 1 hr at RT. Plates were then washed 6 times with 0.05% Tween 20/1×PBS, and TMB was added to develop blue color. Reactions were stopped with 2N […] and light absorbance at 450 nm was read on a BioTek plate reader. Absorbance versus IL-2 concentration is graphed for human IL-2Rα and IL-2Rβ.

[14] = target: T6, recombinant His-tagged human IL-2Rβ (human, UniProt P14784 27-240, limits assumed); assay: ELISA, coated His-tagged human IL-2Rβ, OD 450 nm
T6 construct: also called IL-2Rβ-HIS; IL-15Rβ-HIS
T6 sequence (looked up): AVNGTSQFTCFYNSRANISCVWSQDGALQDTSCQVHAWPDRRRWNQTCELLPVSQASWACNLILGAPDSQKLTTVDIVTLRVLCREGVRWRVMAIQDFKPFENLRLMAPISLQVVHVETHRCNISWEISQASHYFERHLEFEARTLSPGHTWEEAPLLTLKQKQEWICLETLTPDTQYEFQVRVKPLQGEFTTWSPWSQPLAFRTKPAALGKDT
Method: as §2

Jurkat Reporter assay EC50 [1]: 0.55 nM
NFAT reporter EC50 [2]: 0.549 nM
NFAT reporter EC50 [3]: 0.549 nM
IC50 [4]: 128 nM
IC50 [5]: 128 nM
IC50 [6]: 128 nM
EC50 [7]: 0.164 nM
Kd [8]: 0.363 nM
Kd [9]: 0.363 nM
koff [9]: 0.000347 s⁻¹
kon [9]: 956000 M⁻¹ s⁻¹
EC50 [10]: 6.68 pM
EC50 (biotinylated PD-L1 [11]): 0.26 nM
EC50 (biotinylated PD-L1 [12]): 0.164 nM
B1: anti-PD-L1 IgG1 antibody EP205/EP206 (2019EP69-F03) (antibody, V domains shown)
VH: QVQLVQSGAEVKKPGSSVKVSCKASGGTFSSYAISWVRQAPGQGLEWMGGIIPIFGTANYAQKFQGRVTITADESTSTAYMELSSLRSEDTAVYYCARDKWYGSAWRGDYWGQGTLVTVSS
VL: QSVLTQPPSASGTPGQRVTISCSGSYSNIGSNFVNWYQQLPGTAPKLLIHFNNQRPSGVPDRFSGSRSGTSASLAISGLQSEDEADYFCSTWDDSLKGPIFGGGTKLTVLG
notes: also called EP206/EP205
binding result [13]: no binding (tested: LOG(IL-2(nM)) about 1.8 (about 70 nM))
binding result [14]: no binding (tested: LOG(IL-2(nM)) about 1.8 (about 70 nM))
